First the molecules themselves.
B1: hz49E10H1H5L6 (antibody, human IgG1, kappa, V domains shown)
VH: DVQLQESGPGLVKPSQTLSLTCTVSGGSISSDYAWNWIRQPPGKGLEWMGYITYSGTTTYNPSLKSRITISRDTSKNQFSLKLSSVTAADTAVYYCARDHYGNYAYFDYWGQGTTVTVSS
VL: DIQMTQSPSSLSASVGDRVTITCRASSSVSFMHWYQQKPGKAPKPWIYASSNLVSGVPSRFSGSGSGTDFTLTISSLQPEDFATYYCQQWSSNPSTFGGGTKVEIKR
notes: also called humanized anti-L1CAM antibody
B2: hz103E9B3H5L5 (antibody, human IgG1, kappa, V domains shown)
VH: EVQLVQSGAEVKKPGASVKVSCKASGYTFTSYTMHWVRQAPGQGLEWMGDINPNYGGTSYNEKFKDRVTMTTDTSTSTAYMELRSLRSDDTAVYYCAREGATGTWYFDVWGQGTTVTVSS
VL: DIQMTQSPSSLSASVGDRVTITCSASSSVSFMFWYQQKPGKAPKPLIYLTSNLASGVPSRFSGSGSGTDFTLTISSLQPEDFATYYCQQWRSNPPTFGGGTKVEIKR
notes: as for B1
B3: hz49E10H1H5L7 (antibody, human IgG1, kappa, V domains shown)
VH: DVQLQESGPGLVKPSQTLSLTCTVSGGSISSDYAWNWIRQPPGKGLEWMGYITYSGTTTYNPSLKSRITISRDTSKNQFSLKLSSVTAADTAVYYCARDHYGNYAYFDYWGQGTTVTVSS
VL: QIQMTQSPSSLSASVGDRVTITCRASSSVSFMHWYQQKPGKAPKPWIYASSNLVSGVPSRFSGSGSGTDYTLTISSLQPEDFATYYCQQWSSNPSTFGGGTKVEIKR
notes: as for B1
B4: hz103E9B3H6L5 (antibody, human IgG1, kappa, V domains shown)
VH: EVQLVQSGAEVKKPGASVKVSCKASGYTFTSYTMHWVRQAPGQGLEWMGDINPNYGGTSYNEKFKDRATMTTDTSTSTAYMELRSLRSDDTAVYYCAREGATGTWYFDVWGQGTTVTVSS
VL: DIQMTQSPSSLSASVGDRVTITCSASSSVSFMFWYQQKPGKAPKPLIYLTSNLASGVPSRFSGSGSGTDFTLTISSLQPEDFATYYCQQWRSNPPTFGGGTKVEIKR
notes: as for B1
B5: hz26A12C1H4L3 (antibody, human IgG1, kappa, V domains shown)
VH: QVQLVQSGAEVKKPGSSVKVSCKASGYTFTNYWIQWVRQAPGQGLEWIGYINPSTYYSDYNQKFQGRVTLTADKSTSTAYMELSSLRSEDTAVYYCARRQFGLPLFDYWGQGTTVTVSS
VL: DIQMTQSPSSLSASVGDRVTITCRASQDVGTAVAWYQQKPGKVPKLLIYWASTLHSGVPSRFSGSGSGTDFTLTISSLQPEDVATYFCQQYSNYPLTFGGGTKVEIKR
notes: as for B1
B6: hz46F1D5H4L3 (antibody, human IgG1, kappa, V domains shown)
VH: QVQLVQSGAEVKKPGSSVKVSCKASGYTFTRYWIQWVRQAPGQGLEWMGYINPSTGYTDYNQKFQGRVTITADKSTSTAYMELSSLRSEDTAVYYCARRHLGLPLFDYWGQGTTVTVSS
VL: DIQMTQSPSSVSASVGDRVTITCRASQDVGTAVAWYQQKPGKAPKLLIYWASSLHSGVPSRFSGSGSGTDFTLTISSLQPEDFATYFCQQYSNYPLTFGGGTKVEIKR
notes: as for B1

The target in the experiment is T1, L1 cell adhesion molecule (L1CAM) on the surface of HeLa cells (human, UniProt P32004 20-1257).
T1 construct: whole, on cells; Endogenous L1CAM of HeLa cells ("HeLa cells that highly express human L1CAM"); also called CD171; human L1CAM
T1 sequence (P32004 20-1257): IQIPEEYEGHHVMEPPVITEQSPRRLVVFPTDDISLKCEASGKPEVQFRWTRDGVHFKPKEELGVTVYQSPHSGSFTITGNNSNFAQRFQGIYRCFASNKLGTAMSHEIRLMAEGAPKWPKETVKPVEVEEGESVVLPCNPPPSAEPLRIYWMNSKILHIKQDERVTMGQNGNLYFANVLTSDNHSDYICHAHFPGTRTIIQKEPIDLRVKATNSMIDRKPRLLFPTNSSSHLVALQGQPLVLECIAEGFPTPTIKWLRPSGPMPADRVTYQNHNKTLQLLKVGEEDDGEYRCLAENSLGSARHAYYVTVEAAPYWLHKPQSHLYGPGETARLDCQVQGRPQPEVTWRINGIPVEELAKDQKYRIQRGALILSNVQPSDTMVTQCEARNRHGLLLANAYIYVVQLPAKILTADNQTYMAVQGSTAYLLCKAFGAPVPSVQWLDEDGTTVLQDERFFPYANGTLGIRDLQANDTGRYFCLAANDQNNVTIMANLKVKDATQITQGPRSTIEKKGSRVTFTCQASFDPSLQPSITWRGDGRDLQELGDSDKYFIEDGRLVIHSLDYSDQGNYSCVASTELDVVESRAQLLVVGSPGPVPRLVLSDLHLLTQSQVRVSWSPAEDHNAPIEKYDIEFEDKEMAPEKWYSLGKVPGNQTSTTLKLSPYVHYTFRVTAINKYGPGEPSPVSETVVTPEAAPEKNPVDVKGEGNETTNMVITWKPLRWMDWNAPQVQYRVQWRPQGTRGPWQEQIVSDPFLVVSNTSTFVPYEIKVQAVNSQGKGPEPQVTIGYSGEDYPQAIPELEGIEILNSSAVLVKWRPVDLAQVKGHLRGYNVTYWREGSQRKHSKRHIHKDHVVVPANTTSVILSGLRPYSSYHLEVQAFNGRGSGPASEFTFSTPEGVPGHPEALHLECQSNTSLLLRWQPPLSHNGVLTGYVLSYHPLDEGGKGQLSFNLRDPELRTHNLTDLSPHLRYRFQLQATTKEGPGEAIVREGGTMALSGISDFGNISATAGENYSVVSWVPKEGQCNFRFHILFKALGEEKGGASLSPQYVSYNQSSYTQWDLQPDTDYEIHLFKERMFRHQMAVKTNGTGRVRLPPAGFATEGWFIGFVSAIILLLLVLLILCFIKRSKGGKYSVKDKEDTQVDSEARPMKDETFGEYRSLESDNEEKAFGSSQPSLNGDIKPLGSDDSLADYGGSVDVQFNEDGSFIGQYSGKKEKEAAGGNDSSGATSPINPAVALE
Nature of the experiment: flow cytometry on HeLa cells, MFI dose-response. Here is the method: Humanized anti-L1CAM antibodies (Human IgG1-Kappa) are diluted in complete medium, in a four-fold serial dilution, with 7 concentration gradient points.
HeLa cells are cultured in DMEM complete medium (Corning, 10-013-CVR) containing 10% FBS (Gibco, 10099-141) and 100 U/mL penicillin-streptomycin mixture (Thermofisher, 15140122). When the cell coverage in the culture container reaches 80-90%, TrypLE (Thermofisher, 12604-013) is used to digest the HeLa cells from the culture container, and they are seeded in a 96-well plate (AXYGEN, P-96-450V-C) at a density of 2.2×10⁶ cells/ml, with 100,000 cells (45 μL complete medium) per well. Then, 5 μL of the antibody dilution is added to each well, mixed gently, and the 96-well plate is incubated at 4° C. for 1 hour. Then, 150 μL of PBS (Corning, 21-040-CVC) containing 2% FBS is added to each well, centrifuged at 1400 rpm for 4 minutes, the supernatant is removed, and washed once again. Then, 50 μL of Alexa Fluor 647-labeled goat anti-human fluorescent secondary antibody (Jacksonimmuno, 109-605-088) diluted at 1:800 is added to each well, and the 96-well plate is incubated at 4° C. for 0.5 hours. The cells are washed twice with PBS solution containing 2% FBS, then resuspended in 120 μL of PBS, and the fluorescent signal on the cell surface is detected using a flow cytometer (BD FACS Celesta), obtaining and the median fluorescence intensity (MFI). A dose-response curve is generated, and the half-maximal effective concentration (EC50) is calculated using non-linear regression with GraphPad software.
As to B1, the EC50 (as a rule, the concentration giving half of the maximal effect) came to 0.404 nM.
With B2 the figure was 1.68 nM.
With B3 the figure was 0.377 nM.
As for B4, the figure is 1.48 nM; as for B5, 0.738 nM.
Turning to B6, a half-maximal response (EC50) required 1.27 nM.

The values are drawn from US20260166166A1 (CURON BIOPHARMACEUTICAL SHANGHAI, published 2026).
